This note sets out measurements from paper PMC6872781 (Neoplasia (New York, N.Y.), 2019).

The experiment has as its target T1, PODXL1-HA(x3)-His(x6) (human, UniProt O00592-1 23-558).
T1 sequence (looked up): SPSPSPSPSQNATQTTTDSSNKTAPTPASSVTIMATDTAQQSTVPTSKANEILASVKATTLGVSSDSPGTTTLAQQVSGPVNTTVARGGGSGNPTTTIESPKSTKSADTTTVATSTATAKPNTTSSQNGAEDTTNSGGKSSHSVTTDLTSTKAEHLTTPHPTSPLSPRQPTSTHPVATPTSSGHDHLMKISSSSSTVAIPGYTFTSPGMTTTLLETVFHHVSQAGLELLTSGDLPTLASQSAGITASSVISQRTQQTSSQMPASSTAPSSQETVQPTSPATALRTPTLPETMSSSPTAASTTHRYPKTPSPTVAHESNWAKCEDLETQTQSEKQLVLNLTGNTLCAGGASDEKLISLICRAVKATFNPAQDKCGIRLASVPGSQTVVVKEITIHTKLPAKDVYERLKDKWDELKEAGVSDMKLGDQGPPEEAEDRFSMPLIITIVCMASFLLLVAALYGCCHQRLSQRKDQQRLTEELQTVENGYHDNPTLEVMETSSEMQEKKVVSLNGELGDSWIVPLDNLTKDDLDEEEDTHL
Kind of experiment: pull-down.

B1: C5aR (Complement component 5a receptor 1), C-terminal 3xFlag-6xHis-tagged (receptor, human, UniProt P21730 1-350, looked up)
chain: MDSFNYTTPDYGHYDDKDTLDLNTPVDKTSNTLRVPDILALVIFAVVFLVGVLGNALVVWVTAFEAKRTINAIWFLNLAVADFLSCLALPILFTSIVQHHHWPFGGAACSILPSLILLNMYASILLLATISADRFLLVFKPIWCQNFRGAGLAWIACAVAWGLALLLTIPSFLYRVVREEYFPPKVLCGVDYSHDKRRERAVAIVRLVLGFLWPLLTLTICYTFILLRTWSRRATRSTKTLKVVVAVVASFFIFWLPYQVTGIMMSFLEPSSPTFLLLKKLDSLCVSFAYINCCINPIIYVVAGQGFQGRLRKSLPSLLRNVLTEESVVRESKSFTRSTVDTMAQKTQAV
For the molecule B1, the binding result is “binds”.
